Experimental data: paper PMC7710356, “RNF41 regulates the damage recognition receptor Clec9A and antigen cross-presentation in mouse dendritic cells” (eLife, 2020)

Assays:
[1] = molecular target: T1, FLAG-tagged recombinant human CLEC9A ecto-domains (hCLEC9A-ecto) (human, UniProt Q6UXN8 57-241); experiment: ELISA; plates coated with GST-RNF41-C, GST-RNF41-RBC or GST (10 μg/ml); FLAG-tagged Clec ectodomains 10 to 0.04 μg/ml in solution; detected with anti-FLAG HRP; conditions: both partners purified
T1 construct: human CLEC9A, full extracellular region (ecto) including the CTLD and stalk; also called human wild-type CLEC9A
T1 sequence (Q6UXN8 57-241): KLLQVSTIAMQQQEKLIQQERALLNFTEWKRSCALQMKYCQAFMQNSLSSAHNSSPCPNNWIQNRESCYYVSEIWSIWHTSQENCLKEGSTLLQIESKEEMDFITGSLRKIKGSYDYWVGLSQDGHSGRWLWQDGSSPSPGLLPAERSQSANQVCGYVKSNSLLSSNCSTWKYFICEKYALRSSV

[2] = molecular target: T2, mutant CLEC9A ectodomain (hCLEC9A W131A, W227A) (human, UniProt Q6UXN8 57-241, W131A | W227A); experiment: as above; conditions: both partners purified
T2 construct: human CLEC9A extracellular region (ecto) with W131A and W227A in the CTLD; Same construct as m2 with the two tryptophan mutations; also called hCLEC9A-ecto (W->A); hCLEC9A-ecto W->A
T2 sequence (Q6UXN8 57-241 W131A/W227A): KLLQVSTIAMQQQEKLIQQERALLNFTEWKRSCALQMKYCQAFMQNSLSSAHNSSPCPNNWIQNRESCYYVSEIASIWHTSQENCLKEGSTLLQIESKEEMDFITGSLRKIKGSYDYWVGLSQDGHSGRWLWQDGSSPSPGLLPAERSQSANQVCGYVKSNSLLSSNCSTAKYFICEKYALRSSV

B1: GST-tagged RNF41 C-terminal domain (RNF41-C) (domain or fragment, human, UniProt Q9H4P4 169-317, looked up)
chain: DIQLLKAYMRAIRSVNPNLQNLEETIEYNEILEWVNSLQPARVTRWGGMISTPDAVLQAVIKRSLVESGCPASIVNELIENAHERSWPQGLATLETRQMNRRYYENYVAKRIPGKQAVVVMACENQHMGDDMVQEPGLVMIFAHGVEEI
notes: RNF41 C-terminal domain; region 169-DIQL…VEEI-317; Cloned into a modified pGEX-2T vector; also called GST-RNF41-C; source: E. coli BL21 DE3, purified (Glutathione-Sepharose, SEC)
[1]
  binding result: binds
[2]
  binding result: binds
